Test [1] deals with T1, human Factor XIa (blood-derived, Haematologic Technologies Inc.) (human, UniProt P03951 19-387; P03951 388-625).
T1 construct: It was biotinylated via primary amines for selections, Octet and Biacore; also called FXIa; human FXIa
The test can be described thus: ELISA, wells coated with hFXIa, anti-human IgG HRP, OD 450. (In general: In an ELISA, binding on a coated surface is turned into a signal by an enzyme label.)

The target in test [2] is T1, human Factor XIa (blood-derived, …). Put plainly: SPR (Biacore T200), biotinylated FXIa captured on a CAP chip, Fab as analyte, 37 C. For orientation: In SPR one partner is held on a chip, and binding of the other changes the refractive index at the surface.
For the next test, the target named is T2, Cyno FXI (Macaca fascicularis, UniProt A0A2K5VVW4).
T2 construct: coating antigen 'FXI' of the chart titled 'Cyno FXI/FXIA'; also called cynomolgus monkey FXI (zymogen)
The test can be described thus: ELISA, wells coated with cynomolgus FXI (zymogen), anti-human IgG HRP, OD 450.

Test [3] concerns the target T1, human Factor XIa (blood-derived, …). Put plainly: SPR (Biacore T200), biotinylated FXIa captured on a CAP chip, IgG as analyte, 25 C.

B1: Clone 24 IgG (antibody, V domains shown)
VH: EVQLVQSGAEVKKPGASVKVSCKASGYTFTGYYMHWVRQAPGQGLEWMGWIDPDSGDTNYAQKFQGRVTMTRDTSISTAYMELSRLRSDDTAVYYCARLASGFRDYWGQGTLVTVSS
VL: DIVMTKSPSSLSASVGDRVTITCRASQGIRNDLGWYQQKPGKAPKRLIYAASSLQSGVPSRFSGSGSGTEFTLTISSLQPEDFATYYCLQHDIYASTFGPGTKVDIKR
notes: also called C24
In the case of B1, the “EC50 (read off the curve)” value in test [1] was ~1 ng/mL.

B2: DEF Fab (Fab, V domains shown)
VH: EVQLVQSGAEVKKPGASVKVSCKASGYTFTGYYMHWVRQAPGQGLEWMGWIDPDEGDTNYAQKFQGRVTMTRDTSISTAYMELSRLRSDDTAVYYCARLASGFRDYWGQGTLVTVSS
VL: DIVMTKSPSSLSASVGDRVTITCRASQGIRNDLGWYQQKPGKAPKRLIYAASSLQSGVPSRFSGSGSGTEFTLTISSLQPEDFATYYCLQHDIYASTFGPGTKVDIKT
B2 yielded a Kd in test [2] of 0.0339 nM.

B3: D4 IgG (antibody, V domains shown)
VH: not shown
VL: DIVMTQSPSSLSASVGDRVTITCRASQGIRNDLGWYQQKPGKAPKRLIYAASSLQSGVPSRFSGSGSGTEFTLTISSLQPEDFATYYCLQHDIYASTFGPGTKVDIKR
notes: also called D4 mAb; D4 anti-FXIa mAb
Regarding B3, the binding result with Cyno FXI is listed as “no binding (tested: not printed)”. This molecule showed a Kd in test [3] of 0.93 nM.

B4: C24 Fab (Fab, V domains shown)
VH: EVQLVQSGAEVKKPGASVKVSCKASGYTFTGYYMHWVRQAPGQGLEWMGWIDPDSGDTNYAQKFQGRVTMTRDTSISTAYMELSRLRSDDTAVYYCARLASGFRDYWGQGTLVTVSS
VL: DIVMTKSPSSLSASVGDRVTITCRASQGIRNDLGWYQQKPGKAPKRLIYAASSLQSGVPSRFSGSGSGTEFTLTISSLQPEDFATYYCLQHDIYASTFGPGTKVDIKR
notes: Fab format of clone 24; also called clone 24 Fab; anti-FXIa C24 Fab
B4 displayed a Kd in test [2] of 0.0152 nM.

What is called EC50 (read off the curve) is the midpoint of the concentration-response curve. As a reminder, the Kd is the equilibrium constant for the complex coming apart. Read a low Kd as higher affinity.
